Reference: patent US20150376269A1 (Regeneron, published 2015)

T1: SRA.mmh
T1 construct: also called SRA.mmh (CHO)
T1 antigen: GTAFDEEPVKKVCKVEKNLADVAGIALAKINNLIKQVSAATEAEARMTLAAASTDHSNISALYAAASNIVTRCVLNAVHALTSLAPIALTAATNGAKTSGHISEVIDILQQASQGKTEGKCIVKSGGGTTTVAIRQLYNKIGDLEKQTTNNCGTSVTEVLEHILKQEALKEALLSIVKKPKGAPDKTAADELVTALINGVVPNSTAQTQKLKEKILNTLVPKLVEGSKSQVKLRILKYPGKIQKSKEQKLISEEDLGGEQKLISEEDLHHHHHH

T2: serum resistance-associated protein (SRA) from Trypanosoma brucei rhodesiense, recombinant SRA (SEQ ID NO: … (Trypanosoma brucei rhodesiense, UniProt O96637 31-274))
T2 construct: also called SRA protein
T2 sequence: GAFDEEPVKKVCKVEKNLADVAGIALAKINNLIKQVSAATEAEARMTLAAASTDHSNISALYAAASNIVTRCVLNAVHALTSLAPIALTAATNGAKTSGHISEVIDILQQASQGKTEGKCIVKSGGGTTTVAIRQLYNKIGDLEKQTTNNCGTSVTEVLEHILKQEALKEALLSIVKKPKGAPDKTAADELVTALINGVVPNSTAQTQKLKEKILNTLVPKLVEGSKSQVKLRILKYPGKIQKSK


Key:
SRA.mmh [1] = target: T1, SRA.mmh; experiment: Octet, mAb-2 at 50 ug/mL on captured SRA.mmh after negative control α-PRLR H1H6800P as mAb-1 (row 32 (-))
[2] = target: T2, serum resistance-associated protein …; experiment: SPR, mAb captured, 50 nM SRA, pH 4.5, 25C
[3] = target: T2, serum resistance-associated protein …; experiment: SPR, mAb captured, 25C, pH 7.4
Method: (§1) Equilibrium dissociation constants (KD) values for SRA binding to selected purified anti-SRA monoclonal antibodies were determined using a real-time surface plasmon resonance biosensor assay on a Biacore T200 instrument. […] SRA binding to the captured monoclonal antibodies was monitored for 4 min while the dissociation of mAb bound SRA was monitored for 7 min. Two different assays formats were adopted to characterize kinetics of SRA binding—(i) regular kinetics and (ii) pH4.5 chase. Regular kinetics experiments were performed using pH7.4 buffer as the running buffer and both the association and dissociation was performed in pH7.4. For the chase format, association and dissociation were performed in pH7.4 buffer and pH4.5 buffer respectively.
(§2) Kinetic association (kₐ) and dissociation (kd) rate constants were determined by processing and fitting the data to a 1:1 binding model using Scrubber 2.0c curve fitting software. Only the dissociation rate (kd) was calculated for the pH4.5 chase experiment. Binding dissociation equilibrium constants (KD) and dissociative half-lives (t½) were calculated from the kinetic rate constants as:

[4] = target: T2, serum resistance-associated protein …; experiment: SPR, 25C, t1/2 pH 7.4 over pH 4.5
Method: as §1, §2

[5] = target: T2, serum resistance-associated protein …; experiment: SPR, mAb captured, pH 4.5, 25C; competitor biotin-mutant apoL1 peptide
[6] = target: T2, serum resistance-associated protein …; experiment: SPR, mAb captured, 25C, assoc. pH 7.4, dissoc. pH 4.5
Method: as §1, §2

SRA.mmh [7] = target: T1, SRA.mmh; experiment: Octet, SRA.mmh captured on anti-Penta-His tips, mAb-1 at 50 ug/mL for 5 min, 25 C, pH 7.4
[8] = target: T2, serum resistance-associated protein …; experiment: SPR, mAb captured, pH 4.5, 25C; competitor biotin-apoL1 peptide
[9] = target: T2, serum resistance-associated protein …; experiment: SPR, mAb captured, 25C, pH 7.4; pH 7.4, 25 C
Method: as §1, §2

[10] = target: T2, serum resistance-associated protein …; experiment: H/D exchange MS, SRA-apoL1 peptide complex, pH 5.0

| Binder | Binding of mAb-2 to SRA Pre-complexed with mAb-1 (SRA.mmh [1]) | 50 nM SRA binding (RU) [2] [RU] | Kd [3] [nM] | kon [3] [M⁻¹ s⁻¹] | t ½ [3] [h] | t ½ ratio pH 7.4/pH 4.5 [4] | 50 nM SRA + 5 uM mutant apoL1 peptide binding (RU) [5] [RU] | % Blocking, Mutant apoL1 peptide [5] [%] | t ½ [6] [h] | 50 ug/mL mAb 1 Bound (nm) (SRA.mmh [7]) | 50 nM SRA + 5 uM apoL1 peptide binding (RU) [8] [RU] | % Blocking, apoL1 peptide [8] [%] | koff [9] [s⁻¹] | binding result [10] |
| --- | --- | --- | --- | --- | --- | --- | --- | --- | --- | --- | --- | --- | --- | --- |
| H1H10067P (antibody, V domains shown, Fully human antibody with human IgG1 Fc (prefix H1H)) VH: QVQLQESGPGLVKPSQTLSLTCIVSGGSISSGDYYWNWIRQHPGKGLEWIGDIYHSGDTYYNPSLKSRVTISLDTSKNQFSLKLSSLTAADTAVYYCARDRIVATGGGMDVWGQGTTVTVSS VL: DIQMTQSPSTLSASVGDRVTITCRASQSISSWLAWYQRKPGKAPNLLIYRSSSLESGVPSRFSGSGSGTEFTLTISSLQADDFVIYYCQQYNSYPYTFGQGTKLEIK | 1.41 | 85 | ≤ 0.0557 | 897000 | ≥ 3.85 | ≥ 4 | 82 | 4 | 0.933 | 1.52 | 98 | -16 | – | – |
| H2aM10204N (antibody, V domains shown, Chimeric antibody, human variable domains and mouse constant domains (mouse Fc, prefix H2aM); also called H2M10204N) VH: QVHLVQSGAEVKKPGSSVKVSCKASGGTFSNYAISWVRQAPGQGLEWMGGIIPFSGSATYAQNFQGRITITTDESTRTAYMELNGLRSEDTAVYYCARWFSGYGGDFDYWGQGTLVTVSS VL: AIQMTQSPSSLSASVGDRVTITCRASQDIKNDLGWYQQKPGKAPKLLIYAASTLQSGVPSRFSGSGSGTHFTLTLSSLQPEDFATYFCLQDYTFPRTFGQGTKVEIK | 1.08 | 140 | ≤ 0.0899 | 556000 | ≥ 3.85 | ≥ 95 | 128 | 9 | 0.0333 | 1.46 | 3 | 98 | – | – |
| H1H10069P (antibody, V domains shown, Fully human antibody with human IgG1 Fc (prefix H1H)) VH: QVQLQESGPGLVKPSETLSLTCSVSGGSFTNYYWSWIRQPPGKGLEWIGSVFYSGTTNYNPSLQSRVTLSIETSKNQFSLRLNSVTAADTAVYYCARDQGAAALDYWGQGTLVTVSS VL: DIQMTQSPSTLSASVGDRLTITCRASQSINNWLAWYQQKPGKAPKLLIYKASNLESGVPSRFSGSGSGTEFTLTISNLQPDDFATYYCQQYNSFFLTFGGGTKVEIK | 1.37 | 54 | ≤ 0.0785 | 636000 | ≥ 3.85 | ≥ 2 | 52 | 5 | 1.87 | 1.61 | 62 | -13 | – | – |
| H2bM10093N (antibody, V domains shown, Chimeric antibody, human variable domains and mouse constant domains; also called H2aM10093N; H2M10093N) VH: EVQLVESGGGLVKPGGSLRLSCVASGFTLSGYSMNWVRQAPGKGLEWVSSISTSSSYIYYADSVQGRFTISRDNAKNSLYLQMNSLRAEDTAVYYCVRKGANWIYFDYWGQGTLVTVSS VL: DIQMTQSPSSVSASVGDRVTITCRASQGISSLLAWFQQKPGKAPNLLIYAASSLQSGVPSRFSGSGSGTDFTLTISSLQPEDFATYYCQQAKSFPFTFGPGTKVDIK | 1.32 | 138 | 0.948 | 521000 | 0.383 | 20 | 122 | 12 | 0.02 | 1.48 | 4 | 97 | 0.000494 | – |
| H2aM10285N (antibody, V domains shown, Chimeric antibody, human variable domains and mouse constant domains (mouse Fc, prefix H2aM); also called H2M10285N) VH: QVQLVQSGAEVKKPGSSVKVSCKASGGTFTNFAISWVRQAPGLGLEWMGGIIPFVGTATYEQKFQGRVSITADESTRTAYMELSSLRYDDTAVYYCARWFSGSGGDFDYWGQGTLVTVSS VL: AIQMTQSPSSLSASVGDRVTITCRASQGIGNDLGWYQQRRGTAPKLLIYAASSLQSGVPSRFSGSGSGTDFTLTISSLQPEDFATYYCLQDFTFPRTFGQGTKVEIK | 1.24 | 120 | 0.138 | 1.03e+06 | 1.37 | 124 | 111 | 8 | 0.0117 | 1.53 | 8 | 94 | – | – |
| H1H10059P (antibody, V domains shown, Fully human antibody with human IgG1 Fc (prefix H1H)) VH: QVQLVQSGAEVKKPGASVKVSCKAAGFTFIGYYIHWVRQAPGQGLEWMGWINSNSGDKDSAPKFQDRVTMTRDTSISTAYMELSRLRSDDTAVYFCAREGYNFGHFDYWGQGTLVTVSS VL: DIVMTQTPLSSPVTLGQPASISCRSSQSLVHSDGNTYLSWLQQRPGQPPRLLIYKISNRLSGVPDRFSGSGAGTDFTLKISRVEGEDVGVYYCMQGTQFPRTFGQGTKVEIK | 1.17 | 73 | ≤ 0.0318 | 1.57e+06 | ≥ 3.85 | ≥ 6 | 65 | 11 | 0.617 | 1.24 | -9 | 100 | – | – |
| H1H10061P (antibody, V domains shown, Fully human antibody with human IgG1 Fc (prefix H1H)) VH: QVQLVESGGGVVQPGNSLRLSCAASGFTFSAYGMHWVRQAPGKGLEWVAVISYDGSNEFYADSVKGRFTIFRDNSKNMLYLQMNSLRVEDTSIYYCAKDRGLGVYYFFYGMDVWGQGTTVTVSS VL: DIVMTQSPDSLVVSLGERATINCKSSQSLLYSSSNNNYLTWYQQKPGRPPKLLIYWASTRESGVPDRFSGSGSGTDFTLTISSLQAEDVAIYYCQQNYITPLTFGGGTKVEIK | 1.53 | 79 | ≤ 0.0308 | 1.62e+06 | ≥ 3.85 | ≥ 2 | 75 | 5 | 1.82 | 1.53 | -5 | 100 | – | – |
| H1H10041P (antibody, V domains shown, Fully human antibody with human IgG1 Fc (prefix H1H)) VH: QVQLVQSGAEVRKPGSSMKVSCATSGGNFRSYTINWVRQAPGQGLEWMGGVFPAVGTRIYAQKFQGRVTISTDESTTIAYMELNSLVPEDTAVYYCARSFNSPFDFWDQGTLVTVSS VL: AIQMTQSPSSLSASVGDRVTLTCRASQDIRNDLHWFQQTPGKAPRLLIYSASNLQSGVPSRFSGTGSGTDFTLTFSSLQPEDFATYYCLQDYSYPYTFGQGTKLEIK | 1.57 | 88 | ≤ 0.0277 | 1.8e+06 | ≥ 3.85 | ≥ 1 | 83 | 5 | 2.75 | 1.69 | 3 | 97 | – | – |
| VYESKHLHEGAKSETAEELKKVAQELEEKLNILNNNYKILQADQEL (Peptide of human apolipoprotein L1 used in the H/D exchange experiment) [apoL1 peptide (SEQ ID NO: 297)] | – | – | – | – | – | – | – | – | – | – | – | – | – | binds |
